Laboratory results as given in the supplement of paper PMC11246515.
± gives the standard deviation of the averaged measurements.

Assay: total protein half-life in vivo (active degradation + dilution); higher = more stable protein
[1] = E. coli NCM3722 delta-clpP delta-lon delta-hslV, growth: N-lim chemostat, doubling time 6 h
[2] = E. coli NCM3722 delta-clpP, growth: N-lim chemostat, doubling time 6 h
[3] = E. coli NCM3722 delta-lon, growth: N-lim chemostat, doubling time 6 h
[4] = E. coli NCM3722 delta-smpB, growth: N-lim chemostat, doubling time 6 h
[5] = wild type E. coli NCM3722, growth: C-lim chemostat, doubling time 3 h
[6] = wild type E. coli NCM3722, growth: C-lim chemostat, doubling time 6 h
[7] = wild type E. coli NCM3722, growth: C-lim chemostat, doubling time 12 h
[8] = wild type E. coli NCM3722, growth: N-lim chemostat, doubling time 6 h
[9] = wild type E. coli NCM3722, growth: N-lim chemostat, doubling time 12 h
[10] = wild type E. coli NCM3722, growth: P-lim chemostat, doubling time 6 h
[11] = wild type E. coli NCM3722, growth: P-lim chemostat, doubling time 12 h
[12] = E. coli NCM3722 delta-hslV, growth: N-lim chemostat, doubling time 6 h

Row | Sequence | total protein half-life in vivo [1] | total protein half-life in vivo [2] | total protein half-life in vivo [3] | total protein half-life in vivo [4] | total protein half-life in vivo [5] | total protein half-life in vivo [6] | total protein half-life in vivo [7] | total protein half-life in vivo [8] | total protein half-life in vivo [9] | total protein half-life in vivo [10] | total protein half-life in vivo [11] | total protein half-life in vivo [12]
1 | MKKIIALMLFLTFFAHANDSEPGSQYLKAAEAGDRRAQYFLADSWFSSGDLSKAEYWAQKAADSGDADACALLAQIKITNPVSLDYPQAKVLAEKAAQAGSKEGEVTLAHILVNTQAGKPDYPKAISLLENASEDLENDSAVDAQMLLGLIYANGVGIKADDDKATWYFKRSSAISRTGYSEYWAGMMFLNGEEGFIEKNKQKALHWLNLSCMEGFDTGCEEFEKLTNG [P0AF56] | 2.83 ± 0.045 h | 2.24 ± 1.1 h | 1.32 h | 0.675 h | 1.04 ± 0.074 h | 1.62 ± 0.75 h | 2.73 ± 2.1 h | 1.12 h | 0.655 h | 1.33 ± 0.63 h | 1.48 ± 0.49 h | 
2 | MKKISLPKIGIRPVIDGRRMGVRESLEEQTMNMAKATAALLTEKLRHACGAAVECVISDTCIAGMAEAAACEEKFSSQNVGLTITVTPCWCYGSETIDMDPTRPKAIWGFNGTERPGAVYLAAALAAHSQKGIPAFSIYGHDVQDADDTSIPADVEEKLLRFARAGLAVASMKGKSYLSLGGVSMGIAGSIVDHNFFESWLGMKVQAVDMTELRRRIDQKIYDEAELEMALAWADKNFRYGEDENNKQYQRNAEQSRAVLRESLLMAMCIRDMMQGNSKLADIGRVEESLGYNAIAAGFQGQRHWTDQYPNGDTAEAILNSSFDWNGVREPFVVATENDSLNGVAMLMGHQLTGTAQVFADVRTYWSPEAIERVTGHKLDGLAEHGIIHLINSGSAALDGSCKQRDSEGNPTMKPHWEISQQEADACLAATEWCPAIHEYFRGGGYSSRFLTEGGVPFTMTRVNIIKGLGPVLQIAEGWSVELPKDVHDILNKRTNSTWPTTWFAPRLTGKGPFTDVYSVMANWGANHGVLTIGHVGADFITLASMLRIPVCMHNVEETKVYRPSAWAAHGMDIEGQDYRACQNYGPLYKR | 4.26 ± 0.39 h | 4.38 h | 3.06 h | 3.21 h | 3.42 ± 0.12 h | 5.12 ± 0.1 h | 9.64 ± 0.84 h | 2.78 ± 0.2 h |  | 5.22 ± 0.62 h | 10.9 ± 1.1 h | 
3 | MKKKIESYQGAAGGWGAVKSVANAVRKQMDIRQDVIAMFDMNKPEGFDCPGCAWPDPKHSASFDICENGAKAIAWEVTDKQVNASFFAENTVQSLLTWGDHELEAAGRLTQPLKYDAVSDCYKPLSWQQAFDEIGARLQSYSDPNQVEFYTSGRTSNEAAFLYQLFAREYGSNNFPDCSNMCHEPTSVGLAASIGVGKGTVLLEDFEKCDLVICIGHNPGTNHPRMLTSLRALVKRGAKMIAINPLQERGLERFTAPQNPFEMLTNSETQLASAYYNVRIGGDMALLKGMMRLLIERDDAASAAGRPSLLDDEFIQTHTVGFDELRRDVLNSEWKDIERISGLSQTQIAELADAYAAAERTIICYGMGITQHEHGTQNVQQLVNLLLMKGNIGKPGAGICPLRGHSNVQGDRTVGITEKPSAEFLARLGERYGFTPPHAPGHAAIASMQAICTGQARALICMGGNFALAMPDREASAVPLTQLDLAVHVATKLNRSHLLTARHSYILPVLGRSEIDMQKNGAQAVTVEDSMSMIHASRGVLKPAGVMLKSECAVVAGIAQAALPQSVVAWEYLVEDYDRIRNDIEAVLPEFADYNQRIRHPGGFHLINAAAERRWMTPSGKANFITSKGLLEDPSSAFNSKLVMATVRSHDQYNTTIYGMDDRYRGVFGQRDVVFMSAKQAKICRVKNGERVNLIALTPDGKRSSRRMDRLKVVIYPMADRSLVTYFPESNHMLTLDNHDPLSGIPGYKSIPVELEPSN | 5.48 ± 0.53 h | 3.76 ± 1.3 h | 4.01 ± 0.03 h | 3.52 ± 0.085 h | 2.35 ± 0.34 h | 2.95 ± 0.35 h | 3.6 ± 0.45 h | 3.5 ± 0.52 h | 4.87 ± 1.3 h | 3.7 ± 0.2 h | 4.31 ± 0.17 h | 4.01 ± 0.19 h
4 | MKKLINDVQDVLDEQLAGLAKAHPSLTLHQDPVYVTRADAPVAGKVALLSGGGSGHEPMHCGYIGQGMLSGACPGEIFTSPTPDKIFECAMQVDGGEGVLLIIKNYTGDILNFETATELLHDSGVKVTTVVIDDDVAVKDSLYTAGRRGVANTVLIEKLVGAAAERGDSLDACAELGRKLNNQGHSIGIALGACTVPAAGKPSFTLADNEMEFGVGIHGEPGIDRRPFSSLDQTVDEMFDTLLVNGSYHRTLRFWDYQQGSWQEEQQTKQPLQSGDRVIALVNNLGATPLSELYGVYNRLTTRCQQAGLTIERNLIGAYCTSLDMTGFSITLLKVDDETLALWDAPVHTPALNWGK | 5.88 ± 0.29 h | 5.22 ± 0.51 h |  | 5.33 ± 0.57 h | 2.78 ± 0.28 h | 5.7 ± 0.2 h | 10.4 ± 0.73 h | 5.72 ± 0.15 h | 10.3 ± 1.2 h | 5.75 ± 0.93 h | 12.5 ± 0.43 h | 5.21 ± 0.23 h
5 | MKKLKINYLFIGILALLLAVALWPSIPWFGKADNRIAAIQARGELRVSTIHTPLTYNEINGKPFGLDYELAKQFADYLGVKLKVTVRQNISQLFDDLDNGNADLLAAGLVYNSERVKNYQPGPTYYSVSQQLVYKVGQYRPRTLGNLTAEQLTVAPGHVVVNDLQTLKETKFPELSWKVDDKKGSAELMEDVIEGKLDYTIADSVAISLFQRVHPELAVALDITDEQPVTWFSPLDGDNTLSAALLDFFNEMNEDGTLARIEEKYLGHGDDFDYVDTRTFLRAVDAVLPQLKPLFEKYAEEIDWRLLAAIAYQESHWDAQATSPTGVRGMMMLTKNTAQSLGITDRTDAEQSISGGVRYLQDMMSKVPESVPENERIWFALAAYNMGYAHMLDARALTAKTKGNPDSWADVKQRLPLLSQKPYYSKLTYGYARGHEAYAYVENIRKYQISLVGYLQEKEKQATEAAMQLAQDYPAVSPTELGKEKFPFLSFLSQSSSNYLTHSPSLLFSRKGSEEKQN [P0AGC5] | 4.75 h |  |  |  |  |  |  | 1.64 h |  |  | 3.13 h | 
6 | MKKLVATAPRVAALVEYEDRAILANEVKIRVRFGAPKHGTEVVDFRAASPFIDEDFNGEWQMFTPRPADAPRGIEFGKFQLGNMVVGDIIECGSDVTDYAVGDSVCGYGPLSETVIINAVNNYKLRKMPQGSSWKNAVCYDPAQFAMSGVRDANVRVGDFVVVVGLGAIGQIAIQLAKRAGASVVIGVDPIAHRCDIARRHGADFCLNPIGTDVGKEIKTLTGKQGADVIIETSGYADALQSALRGLAYGGTISYVAFAKPFAEGFNLGREAHFNNAKIVFSRACSEPNPDYPRWSRKRIEETCWELLMNGYLNCEDLIDPVVTFANSPESYMQYVDQHPEQSIKMGVTF | 6.29 ± 0.3 h |  |  |  |  |  |  |  |  |  |  | 
7 | MKKLVLAALLASFTFGASAAEKINFGVSATYPPFESIGANNEIVGFDIDLAKALCKQMQAECTFTNHAFDSLIPSLKFRKYDAVISGMDITPERSKQVSFTTPYYENSAVVIAKKDTYKTFADLKGKRIGMENGTTHQKYIQDQHPEVKTVSYDSYQNAFIDLKNGRIDGVFGDTAVVNEWLKTNPQLGVATEKVTDPQYFGTGLGIAVRPDNKALLEKLNNALAAIKADGTYQKISDQWFPQ | 4.29 ± 0.69 h | 5.1 ± 0.92 h | 6.25 ± 0.23 h | 5.73 ± 0.62 h | 2.99 ± 0.12 h | 6.13 ± 0.83 h | 9.32 ± 1.2 h | 5.47 ± 0.24 h | 11.9 ± 0.32 h | 5.3886 ± 0.0029 h | 11 ± 1.2 h | 5.91 ± 0.093 h
8 | MKKNSYLLSCLAIAVSSACHAEVLTYPDPLGSSQSDFGGTGLLQMPNARIAPEGEFSVNYRDNDQYRFYSTSVALFPWLEGTIRYTDVRTRKYSQWEDFSGDQSYKDKSFDFKLRLWEEGYWLPQVAFGKRDIAGTGLFDGEYLVASKQAGPFDFTLGMAWGYAGNAGNITNPFCRVSDKYCHRAESHDAGDISFSDIFRGPASIFGGIEYQTPWNPLRLKLEYDGNNYQNDFAGKLPQASHFNVGAVYRAASWADLNLSYERGNTLMFGFTLRTNFNDLRPALRDTPKPAYQPAPESEGLQYTTVANQLTALKYNAGFDAPEIQLRDKTLYMSGQQYKYRDSREAVDRANRILVNNLPQGVEKISVTQKREHMAMVTTETDVASLRKQLAGTAPGQSEPLQQQRVEAEDLSAFGRGYRIREDRFSYSFNPTLSQSLGGPEDFYMFQLGLMSSARYWFTDHLLLDGGIFTNIYNNYDKFKSSLLPADSTLPRVRTHIRDYVRNDVYLNNLQANYFADLGNGFYGQVYGGYLETMYAGVGSELLYRPLDACWALGVDVNYVKQRDWDNMMRFTDYSTPTGFVTAYWNPPTLNGVLMKLSVGQYLAKDKGATIDVAKRFDSGVAVGVWAAISNVSKDDYGEGGFSKGFYISIPFDLMTIGPNRNRAVVSWTPLTRDGGQMLSRKYQLYPMTAEREVPVGQ | 4.97 ± 0.12 h |  |  |  | 3.09 h |  | 10.3 h | 6.71 h |  |  | > 16 h | 6.08 ± 0.65 h
